This is an account of results in patent US6559124B1, “Use of prosaposin and peptides obtained therefrom for treatment of neural degeneration” (Myelos Corporation, priority 1993, dated 2003).

For data set [1], the system named is NS20Y neuroblastoma cells. Description: Neurite outgrowth of NS20Y neuroblastoma cells. As to conditions: for % Neurites after 24 hours: peptide added at 5 μg/ml, None = 18%. The class given is cell-based. The method, then: NS20Y neuroblastoma cells were grown in Dulbecco's Modified Eagle Medium (DMEM) containing 10% fetal calf serum (FCS) and 1 mM sodium pyruvate. Cells were removed with trypsin and plated in 30 mm petri dishes onto glass coverslips. After 20-24 hours the medium was replaced with DMEM containing 0.5% fetal calf serum plus effector proteins. Cells were cultured for another 24 hours, washed with phosphate buffered saline (PBS) and fixed with Bouin's solution (saturated aqueous picric acid/formalin/acetic acid 15:5:1) for 30 minutes. Fixative was removed with PBS and neurite outgrowth was scored under a phase contrast microscope. […] At least 200 cells were scored in different portions of each dish to determine the percentage of neurite bearing cells and assays were performed in duplicate.

Details of data set [2]: species or system rats. The settings on record: rat, in vivo. The procedure:
An 18-mer peptide consisting of amino acids 12-29 of saposin C with a tyrosine substituted for valine at position 12 was chemically synthesized on an Applied Biosystems Model 430 peptide synthesizer. The peptide was then radioiodinated by the lactoperoxidase method and 20×10^6 cpm were injected into the auricles of rats. The animals were sacrificed after one hour and 24 hours and the hearts were perfused with isotonic saline in order to remove the blood from the brain. The brain was then counted in a gamma counter in order to determine the percentage of peptide uptake. In addition, in the 24 hour experiment the brain was homogenized and separated into a capillary rich fraction (pellet) and a parenchymal brain fraction (supernatant) after dextran centrifugation (Triguero et al., (1990) J. Neurochem., 54: 1882-1888). This method allows for the discrimination between radiolabelled peptide within blood vessels and that within the brain. In the 24 hour experiment, 0.017% of the injected peptide was detected in whole brain, 75% of the label was in the parenchymal fraction and 25% was in the capillary fraction. At 1 hour 0.03% of the injected dose was present in whole brain.

Data set [3] deals with NS20Y proteins. The experiment in a line: Incorporation of 32P into NS20Y proteins. The class given is cell-based. As to conditions: NS20Y cells; effector proteins 0.5-1.0 μg/ml, 10-15 minutes; versus controls or saposins A, B or D. The method, then: NS20Y cells were incubated in phosphate-free Hanks' balanced salt solution containing 2.5 μg/ml actinomycin D and 80-100 μCi/ml carrier-free [^32P]-orthophosphate (New England Nuclear) and effector proteins (0.5-1.0 μg/ml) and incubated for 10-15 minutes at room temperature. Cells were solubilized in SDS-PAGE sample buffer, analyzed by SDS-PAGE and autoradiographed.

Data set [4] concerns PC12M pheochromocytoma cells. The experiment in a line: Neurite outgrowth from NGF-responsive PC12M cells. The format is cell-based. The settings on record: high concentrations (2 mg/ml). An excerpt:
Since nerve growth factor (NGF) acts on a variety of cell types, we wanted to determine whether it was involved in prosaposin-mediated outgrowth in neuroblastoma cells.

The subject of data set [5] is mouse cerebellar explants. The experiment in a line: Neurite outgrowth and myelination in newborn mouse cerebellar explants. The format is cell-based. The settings on record: prosaposin 5 μg/ml, saposins 10 μg/ml; for cells with long projections at the periphery of the explant: day 15. The method, then: Newborn mouse cerebellar explants were prepared according to Satomi (Zool. Sci. 9, 127-137 (1992)). Neurite outgrowth and myelination were observed over 22 days in culture, during the period when the newborn mouse cerebellum normally undergoes neuronal differentiation and myelination begins. Prosaposin (5 μg/ml) and saposins A, B and C (10 μg/ml) were added on the second day after preparation of the explants (three control and three treated explants) and outgrowth of neurites and myelination were assessed under a bright field microscope with a video camera.

Several values for one entry are separate records, joined by “and”; a condition that tells them apart may be missing. Equal values may be shown once. Where no end group is shown, it is not given here.

As to “21-48: synthetic peptide from the human saposin C domain, residues 21-48 (NNKTEKEILDAFDKMCSKLPKSLSEECQ; Saposin-C; UniProt P07602 331-358, looked up, fragment)”, the “% Neurites after 24 hours” value in data set [1] is on record as 18%.

For the molecule “13-34: synthetic peptide from the human saposin C domain, residues 13-34 (KEVTKLIDNNKTEKEILDAFDK; Saposin-C; UniProt P07602 323-344, looked up, fragment)”, the “% Neurites after 24 hours” value in data set [1] turned out to be 50%.

Consider “1-40: amino terminal synthetic peptide, residues 1-40 of saposin C (SDVYCEVCEFLVKEVTKLIDNNKTEKEILDAFDKMCSKLP; Saposin-C; UniProt P07602 311-350, looked up, fragment)”, for which, in data set [1], the “neuritogenic activity (in words)” value is “active” and the “% Neurites after 24 hours” value stood at 42%.

Consider “NGF: nerve growth factor, a neurotrophin [reference compound]”, for which the “neuritogenic activity (in words)” value in data set [1] was “no effect on neurite outgrowth”. Further, the “augmentation of the prosaposin neurite outgrowth response” value in data set [1] (5 μg/ml NGF (FIG. 1b)) is reported as “did not augment the prosaposin response”.

Take “iodinated 18-mer: amino acids 12-29 of saposin C with tyrosine substituted for valine at position 12 (SEQ ID NO: 5), radioiodinated (YKEVTKLIDNNKTEKEIL; also: radioiodinated)”: in data set [1], the “neuritogenic activity (in words)” value was “neuritogenic activity”. In addition, in data set [2], the “crossing of the blood brain barrier (in words)” value was “crosses the blood brain barrier”, the “injected peptide detected in whole brain” value came out at 0.017%, the “label in the capillary fraction of brain” value turned out to be 25% and the “label in the parenchymal fraction of brain” value was found to be 75%.

In the case of CEFLVKEVTKLIDNNKTEKEIL [8-29], in data set [1], the “neuritogenic activity (in words)” value is “neuritogenic activity” and the “% Neurites after 24 hours” value is recorded as 56%. Moreover, the “extent of neurite outgrowth compared with prosaposin or saposin C” value in data set [1] (FIG. 1a, higher concentrations required for activity) is on record as “greater than with prosaposin or saposin C”. For the same molecule, in data set [3], the “phosphorylation of proteins of 148, 100, 80, 68, 50, 38 and 34 kDa (in words)” value is listed as “stimulate phosphorylation”.

For “1-27: synthetic peptide from the human saposin C domain, residues 1-27 (SDVYCEVCEFLVKEVTKLIDNNKTEKE; Saposin-C; UniProt P07602 311-337, looked up, fragment)”, the “% Neurites after 24 hours” value in data set [1] amounted to 46%.

On to “41-82: carboxy terminal synthetic peptide, residues 41-82 of saposin C (KSLSEECQEVVDTYGSSILSILLEEVSPELVCSMLHLCSGTR; Saposin-C; UniProt P07602 351-392, looked up, fragment)”, for which, in data set [1], the “neuritogenic activity (in words)” value was “inactive” and the “% Neurites after 24 hours” value is listed as 17%.

B1: Prosaposin: 70 kilodalton glycoprotein, precursor of saposins A, B, C and D; human sequence SEQ ID NO:2 (protein)
chain: MYALFLLASLLGAALAGPVLGLKECTRGSAVWCQNVKTASDCGAVKHCLQTVWNKPTVKSLPCDICKDVVTAAGDMLKDNATEEEILVYLEKTCDWLPKPNMSASCKEIVDSYLPVILDIIKGEMSRPGEVCSALNLCESLQKHLAELNHQKQLESNKIPELDMTEVVAPFMANIPLLLYPQDGPRSKPQPKDGDVCQDCIQMVTDIQTAVRTNSTFVQALVEHVKEECDRLGPGMADICKNYISQYSEIAIQMMMHMQPKEICALVGFCDEVKEMPMQTLVPAKVASKNVIPALDLVDPIKKHEVPAKSDVYCEVCEFLVKEVTKLIDNNKTEKEILDAFDKMCSKLPKSLSEECQEVVDTYGSSILSILLEEVSPELVCSMLHLCSGTRLPALTVHVTQPKDGGFCEVCKKLVGTLDRNLEKNSTKQEILAALEKGCSFLPDPYQKQCDQFVAEYEPVLIEILVEVMDPSFVCLKIGACPSAHKPLLGTEKCIWGPSYWCQNTETAAQCNAVEHCKRHVWN
Turning to B1, the “neuritogenic activity (in words)” value in data set [1] is listed as “promoted reversible neurite outgrowth”. For the same molecule, the “lowest concentration for activity (neurite outgrowth)” value in data set [1] (dose-response curve FIG. 1a) is 1.4×10^−11 M and 10 ng/ml. Further, in data set [1] (prosaposin removed), the “time at which retraction of neurite outgrowth was complete after removal” value came out at 36 h. Further, the “stimulation of neurite outgrowth from PC12M cells” value in data set [4] is given as “failed to stimulate neurite outgrowth”. In addition, in data set [5] (day 8), the “appearance of explant cultures on the eighth day” value is “thinner and more spread out than control cultures”. Moreover, the “cells with long projections at the periphery of the explant” value (shortened to “cells with long projections”) in data set [5] is reported as “many cells with long projections”. The “phosphorylation of proteins of 148, 100, 80, 68, 50, 38 and 34 kDa (in words)” value in data set [3] was “stimulate phosphorylation”.

B2: saposin B: one of four saposins generated from prosaposin (protein, UniProt P07602 195-273, looked up)
Saposin-B: GDVCQDCIQMVTDIQTAVRTNSTFVQALVEHVKEECDRLGPGMADICKNYISQYSEIAIQMMMHMQPKEICALVGFCDE
modifications: Saposin-B
notes: one of four saposins generated from prosaposin
As to B2, the “cells with long projections” value in data set [5] is “less prominent”.

B3: Saposin A: one of four saposins generated from prosaposin; inactive in neurite outgrowth (protein, UniProt P07602 60-142, looked up)
Saposin-A: SLPCDICKDVVTAAGDMLKDNATEEEILVYLEKTCDWLPKPNMSASCKEIVDSYLPVILDIIKGEMSRPGEVCSALNLCESLQ
modifications: Saposin-A
Turning to B3, in data set [1], the “neuritogenic activity (in words)” value was “inactive” and the “% Neurites after 24 hours” value was 20%. Moreover, in data set [5], the “cells with long projections” value is “less prominent”.
